# Experimental data from patent US20220249679A1 (MITSUBISHI TANABE PHARMA, published 2022).
# Values joined by “and” are separate entries in the source; they are usually repeats but may differ in a detail not shown here. Identical values can stand only once.
# T1: hCD138 (ELISA of Table 29) (human, UniProt P18827 23-254, limits assumed)
# T1 construct: also called human CD138
# T1 sequence: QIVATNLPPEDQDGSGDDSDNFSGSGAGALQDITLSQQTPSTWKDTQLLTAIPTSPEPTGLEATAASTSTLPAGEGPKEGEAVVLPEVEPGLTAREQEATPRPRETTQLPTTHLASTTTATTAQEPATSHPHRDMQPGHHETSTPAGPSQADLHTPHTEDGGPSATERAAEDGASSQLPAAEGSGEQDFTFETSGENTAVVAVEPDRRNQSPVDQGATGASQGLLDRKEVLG
# T2: Human CD138 His (human, UniProt P18827 23-254)
# T2 construct: also called hCD138
# T2 sequence: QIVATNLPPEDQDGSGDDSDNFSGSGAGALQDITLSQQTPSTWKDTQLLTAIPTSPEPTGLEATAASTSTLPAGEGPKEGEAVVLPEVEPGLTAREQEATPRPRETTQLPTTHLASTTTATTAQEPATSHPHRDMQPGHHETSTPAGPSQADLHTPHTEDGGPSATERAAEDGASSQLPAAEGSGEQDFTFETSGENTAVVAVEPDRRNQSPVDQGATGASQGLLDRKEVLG
# T3: Mouse CD138 His (mouse, UniProt P18828 23-255)
# T3 construct: also called mCD138
# T3 sequence: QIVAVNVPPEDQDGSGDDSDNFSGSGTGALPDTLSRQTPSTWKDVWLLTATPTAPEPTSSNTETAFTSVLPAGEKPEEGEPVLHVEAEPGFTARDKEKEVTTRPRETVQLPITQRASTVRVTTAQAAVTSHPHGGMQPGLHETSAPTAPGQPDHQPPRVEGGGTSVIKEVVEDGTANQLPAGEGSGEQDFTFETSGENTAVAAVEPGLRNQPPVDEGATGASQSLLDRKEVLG
# T4: hCD138 peptide AGEGPKEGEAVVLP (human)
# T4 construct: Portion of the linear CD138 peptide used for immunization; also the peptide in the crystal structure; also called syndecan-1 peptide
# T4 peptide: AGEGPKEGEAVVLP
# T5: Human syndecan-1 (CD138) on the cell surface (human, UniProt P18827 23-310)
# T5 construct: Endogenous on H929, KMS-11 and RT112/84 cells or transfected into Expi293 cells; also called human CD138; hCD138
# T5 sequence: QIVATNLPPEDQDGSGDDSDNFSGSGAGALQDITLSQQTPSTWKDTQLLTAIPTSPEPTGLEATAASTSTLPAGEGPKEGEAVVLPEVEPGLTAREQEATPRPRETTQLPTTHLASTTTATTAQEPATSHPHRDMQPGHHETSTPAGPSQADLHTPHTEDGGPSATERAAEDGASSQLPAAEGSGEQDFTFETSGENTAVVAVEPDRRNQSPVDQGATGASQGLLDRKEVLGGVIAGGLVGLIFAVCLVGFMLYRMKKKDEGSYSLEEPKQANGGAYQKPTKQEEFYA
# T6: Human CD138-Fc protein (human, UniProt P18827 23-254)
# T6 construct: also called hCD138-Fc
# T6 sequence: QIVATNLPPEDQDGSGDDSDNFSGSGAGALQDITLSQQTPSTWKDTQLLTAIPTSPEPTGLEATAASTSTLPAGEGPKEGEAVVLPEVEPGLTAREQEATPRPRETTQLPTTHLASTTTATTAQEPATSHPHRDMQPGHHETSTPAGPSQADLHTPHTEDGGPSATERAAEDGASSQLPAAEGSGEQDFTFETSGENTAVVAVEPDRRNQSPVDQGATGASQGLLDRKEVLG
# Legend:
# [1] = molecular target: T1, hCD138 (ELISA of Table 29); test: hCD138 ELISA
# Human CD138 His [2] = molecular target: T2, Human CD138 His; test: SPR (BioRad Proteon), CD138 His immobilized, bivalent analyte fit
# Protocol: (§1) Murine IgGs were purified from the hybridoma supernatants and the IgGs were subject to SPR (surface plasmon resonance) for kinetic binding measurements. Human or mouse CD138 His was immobilized on a GLM chip at […] on a BioRad Proteon. […] KDs were measured using bivalent analyte fit.
# Mouse CD138 His = molecular target: T3, Mouse CD138 His; test: SPR, mouse CD138 His immobilized
# Protocol: as §1
# Human CD138 His [3] = molecular target: T2, Human CD138 His; test: SPR, summary table
# Protocol: as §1
# [4] = molecular target: T4, hCD138 peptide AGEGPKEGEAVVLP; test: ELISA, plate-coated hCD138 peptide
# Protocol: (§2) A CD138 binding ELISA was performed with 9 representative humanized antibodies to determine binding to portion of the linear CD138 peptide used for immunization (FIG. 7). […] Coated plates were incubated with various dilutions of each of the 9 representative antibodies overnight and binding was detected with a goat anti-human IgG (H+L)-HRP. EC50s were determined using four parameter fit curves (Table 21). An ELISA was also performed to detect binding to plate-coated human CD138-Fc protein (Table 21).
# [5] = molecular target: T5, Human syndecan-1 (CD138) on the cell …; test: FACS on RT-112 cells, four parameter fit
# Protocol: (§3) Analysis of cell-surface binding to human CD138 was performed on 9 representative humanized anti-CD138 antibodies by FACS (FIG. 7). […] Two cell lines expressing moderate levels of CD138 were used to test binding; multiple myeloma cell line KMS-11 and bladder cancer line RT112/84. […] EC50s were calculated using four parameter fit curves (Table 20). The constructs were also tested against ARH-77 cells, which are CD138 negative lymphoblasts.
# [6] = molecular target: T5, Human syndecan-1 (CD138) on the cell …; test: summary table; repeats the EC50 (nM) of Table 20, unit not given
# Protocol: as §3
# Human CD138-Fc protein [7] = molecular target: T6, Human CD138-Fc protein; test: ELISA, plate-coated human CD138-Fc
# Protocol: as §2
# Human CD138-Fc protein [8] = molecular target: T6, Human CD138-Fc protein; test: summary table; repeats the EC50 (nM) of Table 21, unit not given
# Protocol: as §2
# [9] = molecular target: T5, Human syndecan-1 (CD138) on the cell …; test: FACS on KMS-11 cells, four parameter fit
# Protocol: as §3
Binder,EC50 [1] [nM],Kd (Human CD138 His [2]),koff (Human CD138 His [2]) [s⁻¹],kon (Human CD138 His [2]) [M⁻¹ s⁻¹],binding result (Mouse CD138 His),Kd (Human CD138 His [3]) [nM],EC50 [4] [nM],EC50 [5] [nM],FACS binding (KMS11) [6],EC50 (Human CD138-Fc protein [7]) [nM],ELISA CD138 Fc binding (Human CD138-Fc protein [8]),EC50 [9] [nM]
"hF6-HC-G7 (bispecific antibody, human IgG1, kappa, IgG1/kappa) heavy: not shown light: DVVMTQTPLSLSVTPGQPASISCKSSQSLLASDGKTYLNWLLQRPGQSPKRLIYLVSKLDSGVPNRFSGSGSGTDFTLQISRVEAEDVGLYYCWQGAHFPFTFGSGTKLEIKRTVAAPSVFIFPPSDEQLKSGTASVVCLLNNFYPREAKVQWKVDNALQSGNSQESVTEQDSKDSTYSLSSTLTLSKADYEKHKVYACEVTHQGLSSPVTKSFNRGEC",0.55,–,–,–,–,–,–,–,–,–,–,–
"F12P7G11 (antibody, V domains shown, Murine IgG purified from hybridoma supernatant) VH: QVQLQQSGAELARPGASVKLSCKASGYTFSSHWMQWVKQRPGQGLEWIGAIYPGDGDTRFTQKFKGKATLTADKSSNTAYMQLSSLASEDSAVYYCARGIYYDRSRAMDYWGQGTSVTVSS VL: QIVLSQSPAILSASPGEKVTMTCRASSSVNYMHWYQQKPGSSPKHWIYATSYLASGVPARFSGSGSGTSYSLTISRVEAEDAATYYCQQWSSDPLTFGAGTKLELKR",–,8.66 nM and 8.6 nM,0.033,3.81e+06,no binding (tested: 167 nM),9,–,–,–,–,–,–
"F11AP11E5 (antibody, V domains shown, Murine IgG purified from hybridoma supernatant) VH: QVQLQQSGAELVKPGASVKLSCKASGYTFTNYYMYWVKQRPGQGLEWIGEINPGNGGTNFNEKFKNKATLTVDKSSSTAYMQLSSLTSEDSAVYYCTTRFAYWGQGTLVIVSA VL: DVVMTQTPLSLSVTIGQPASISCKSGQSLLYSNGKTYLTWLQQRPGQAPKLLMYQVSKLDPGIPDRFSGSGSETDFTLKISRVEAEDLGVYYCLQNTYYPHTFGAGTKLELKR",–,91.6 nM,0.0117,128000,no binding (tested: 167 nM),92,–,–,–,–,–,–
"F6 ckf-rep (antibody, V domains shown, Humanized F12P16F6 expressed as whole antibody with human constant regions (kappa light chain)) VH: QVQLVQSGAEVVKPGASVKLSCKASGYTFTSYYLYWVKKAPGQGLDWIGEIYPRSGGTNINEKFLSRVTLTADTSTSTAYLELSSLTSEDTAVYYCTRSLLYWGQGTTLTVSS VL: DVVMTQSPLSLSVTLGQPASISCKSSQSLLASDGKTYLNWLQQRPGQSPRRLIYLVSKLDSGVPNRFSGSGSGTDFTLQISRVEAEDVGLYYCWQGAHFPFTFGSGTKLEIKR",–,–,–,–,–,–,0.981,2.09,1.64,0.535,0.535,1.64
"F6 cks-rep (hF6) (antibody, human IgG1, kappa, V domains shown, Humanized IgG1/kappa antibody; also called hF6 (no Fynomer)) VH: QVQLVQSGAEVVKPGASVKLSCKASGYTFTSYYLYWVKKAPGQGLDWIGEIYPRSGGTNINEKFLSRVTLTADTSTSTAYLELSSLTSEDTAVYYCTRSLLYWGQGTTLTVSS VL: DVVMTQTPLSLSVTPGQPASISCKSSQSLLASDGKTYLNWLLQRPGQSPKRLIYLVSKLDSGVPNRFSGSGSGTDFTLQISRVEAEDVGLYYCWQGAHFPFTFGSGTKLEIKR",0.56,–,–,–,–,–,0.33,2.2,1.2,0.197,0.197,1.2
"F6 f1kf-rep (antibody, V domains shown, Humanized F12P16F6 expressed as whole antibody with human constant regions (kappa light chain)) VH: QVQLQQSGAEVVKPGASVKLSCKASGYTFTSYYLYWVKKAPGQGLDWIGEIYPRSGGTNINEKFLSRVTLTADTSTSTAYMDLSSLTSEDTAVYYCTRSLLYWGQGTTLTVSS VL: DVVMTQSPLSLSVTLGQPASISCKSSQSLLASDGKTYLNWLQQRPGQSPRRLIYLVSKLDSGVPNRFSGSGSGTDFTLQISRVEAEDVGLYYCWQGAHFPFTFGSGTKLEIKR",–,–,–,–,–,–,0.413,1.93,0.94,0.225,0.225,0.94
"F6 f1ks-rep (antibody, V domains shown, Humanized F12P16F6 expressed as whole antibody with human constant regions (kappa light chain)) VH: QVQLQQSGAEVVKPGASVKLSCKASGYTFTSYYLYWVKKAPGQGLDWIGEIYPRSGGTNINEKFLSRVTLTADTSTSTAYMDLSSLTSEDTAVYYCTRSLLYWGQGTTLTVSS VL: DVVMTQTPLSLSVTPGQPASISCKSSQSLLASDGKTYLNWLLQRPGQSPKRLIYLVSKLDSGVPNRFSGSGSGTDFTLQISRVEAEDVGLYYCWQGAHFPFTFGSGTKLEIKR",–,–,–,–,–,–,1.31,2.73,0.97,0.762,0.762,0.97
"F6 f2kf-rep (antibody, V domains shown, Humanized F12P16F6 expressed as whole antibody with human constant regions (kappa light chain)) VH: QVQLQQSGAEVVKPGASVKLSCKASGYTFTSYYLYWVKKAPGQGLDWIGEIYPRSGGTNINEKFLSRVTITADESTSTVYMQLSSLTSEDSAVYYCTRSLLYWGQGTTLTVSS VL: DVVMTQSPLSLSVTLGQPASISCKSSQSLLASDGKTYLNWLQQRPGQSPRRLIYLVSKLDSGVPNRFSGSGSGTDFTLQISRVEAEDVGLYYCWQGAHFPFTFGSGTKLEIKR",–,–,–,–,–,–,0.726,2.46,1.81,0.405,0.405,1.81
"F6 f1ka-rep (antibody, V domains shown, Humanized F12P16F6 expressed as whole antibody with human constant regions (kappa light chain)) VH: QVQLQQSGAEVVKPGASVKLSCKASGYTFTSYYLYWVKKAPGQGLDWIGEIYPRSGGTNINEKFLSRVTLTADTSTSTAYMDLSSLTSEDTAVYYCTRSLLYWGQGTTLTVSS VL: DVVMTQTPLSLSVTPGQPASISCKSSQSLLASDGKTYLNWLLQRPGQSPKRLIYLVSKLDSGVPNRFSGSGSGTDFTLQISRVEAEDVGLYYCMQGAHFPFTFGGGTKVEIKR",–,–,–,–,–,–,0.744,1.39,0.83,0.433,0.433,0.83
"F6 cka-rep (antibody, V domains shown, Humanized F12P16F6 expressed as whole antibody with human constant regions (kappa light chain)) VH: QVQLVQSGAEVVKPGASVKLSCKASGYTFTSYYLYWVKKAPGQGLDWIGEIYPRSGGTNINEKFLSRVTLTADTSTSTAYLELSSLTSEDTAVYYCTRSLLYWGQGTTLTVSS VL: DVVMTQTPLSLSVTPGQPASISCKSSQSLLASDGKTYLNWLLQRPGQSPKRLIYLVSKLDSGVPNRFSGSGSGTDFTLQISRVEAEDVGLYYCMQGAHFPFTFGGGTKVEIKR",–,–,–,–,–,–,1.65,2.44,1.3,0.855,0.855,1.3
"F6 aks-rep (antibody, V domains shown, Humanized F12P16F6 expressed as whole antibody with human constant regions (kappa light chain)) VH: QVQLVQSGAEVVKPGASVKLSCKASGYTFTSYYLYWVKKAPGQGLDWIGEIYPRSGGTNYAEKFQGRVTLTADTSTSTAYLELSSLTSEDTAVYYCTRSLLYWGQGTTLTVSS VL: DVVMTQTPLSLSVTPGQPASISCKSSQSLLASDGKTYLNWLLQRPGQSPKRLIYLVSKLDSGVPNRFSGSGSGTDFTLQISRVEAEDVGLYYCWQGAHFPFTFGSGTKLEIKR",–,–,–,–,–,–,1.28,2.13,1.36,0.969,0.969,1.36
"F6 akf-rep (antibody, V domains shown, Humanized F12P16F6 expressed as whole antibody with human constant regions (kappa light chain)) VH: QVQLVQSGAEVVKPGASVKLSCKASGYTFTSYYLYWVKKAPGQGLDWIGEIYPRSGGTNYAEKFQGRVTLTADTSTSTAYLELSSLTSEDTAVYYCTRSLLYWGQGTTLTVSS VL: DVVMTQSPLSLSVTLGQPASISCKSSQSLLASDGKTYLNWLQQRPGQSPRRLIYLVSKLDSGVPNRFSGSGSGTDFTLQISRVEAEDVGLYYCWQGAHFPFTFGSGTKLEIKR",–,–,–,–,–,–,1.54,1.88,1.09,0.879,0.879,1.09
